Data as given in the DeepSol protein solubility set.

Test: soluble on expression in E. coli; label from the status in PepcDB or PDB records

| Sequence | soluble on expression in E. coli |
| --- | --- |
| MEYIKRKKTRKVRVGDIYIGGDAKITVQSMTNTDTRDVEATVNQIKMLEDIGCDIIRVAVVDQEAAEAIKEIKKSIKIPLVADIHFDYRLAISSMENGADKIRLNPGNIGDRERVRKVVEVAKSRQIPIRIGVNSGSLEKNVIEKYGGITPEAMVESALQHVRILEELDFYDIVISLKASSVPMTIAAYRLMSEKTDYPLHIGVTEAGTVFKGTIKSCAGLGCLLAEGIGDTIRVSLTGDPKEEVLVGHELLRALGIEKGGIELVSCPTCGRCQIDLIGIAEKVEERLEGLDKNIKVAIMGCAVNGPGEAKEADIGIAGGKGEVLLFKKGVIVRKIPQERAVEELMEEILRM | soluble |
| MSLSEILTIGEPIVTFASKEPDVSLRDALEFHKILGGAELNVAIGAQRLGHSVDYISQVGEEPLGDYVIKTIKEHHVGTRYITRDADYWTAFQLKDRVTQGNPTTQNYRRGSAAAHLTPAVVDQIDLTDVRAAHMSGIFPAISATAEAAFRTLLKRLEAANILTTFDPNLRPTLWPSRGKMVTTLNELAGHAEIVLPGVEEGEILMGSTDPEKIADFYLRGARTKVVIVKVGPAGAYVKQQSGESYTVTGFKVAQVADTVGAGDGFAMGVLTALLEHKSLRSAVMRGNAVGALQVQTYGDNDGYPTPAGLQAFYQQEGVVEEGHHHHHH | not soluble |
| MGSDKIHHHHHHMYLKVFKEDVIDGLQKAANIIPAKTGAAYLRSIWLKAEAGMVHVLSTDSNIEFRGSYKAEVTEEGLAGVQGRAFVDLIRKLPAGEITLHLDPKTGTLGIEQGRRKYTLPTNDTAWFQNFSDYPESGSVFWSGDFLQELIDKLSFCISDEDTMEAIACMSMKPRQDNAIEACGLNGHQFAMQRFLNDDIHALLPAEGILVQKKYLMELKKWLGADEIELNIDNKRLFFRTGDKRETFSLPLSYYQYPDYTSFVSKLSTPDAGALEVNRKDMMAALDRVLIFNTDNNRCTYFDLEAGEVSLSSQGQEVGSASESLEGTYDGSLKRIAFPTRNLIEIMNHYQSDSMRFTLTGTEGPCGLTGENDPDYLVIVMPMKIVEETYYSEEEV | not soluble |
| GSRTGSESSRPNTALLDPSSPEFSAVVSVGDWLQAIKMDRYKDNFTAAGYTTLEAVVHMSQDDLARIGITAITHQNKILSSVQAMRTQMQQMHG | soluble |
| KETKTTVHKFGLEPPSELIQKQLRANLDDDIWEVIRSRKIDGEHVILDKDYFFRKHVPHLTKEICENSIYEYIEGELGLSISYAQKEIVAEPCTDEDRELLDLRGYDHMVVVRNYVFLEDTSLFQYTESRHRL | not soluble |
| MKKPELTATSVEKFLIEKFDSVSDLMQLSEGEESRAFSFDVGGRGYVLRVNSCADGFYKDRYVYRHFASAALPIPEVLDIGEFSESLTYCISRRAQGVTLQDLPETELPAVLQPVAEAMDAIAAADLSQTSGFGPFGPQGIGQYTTWRDFICAIADPHVYHWQTVMDDTVSASVAQALDELMLWAEDCPEVRHLVHADFGSNNVLTDNGRITAVIDWSEAMFGDSQYEVANIFFWRPWLACMEQQTRYFERRHPELAGSPRLRAYMLRIGLDQLYQSLVDGNFDDAAWAQGRCDAIVRSGAGTVGRTQIARRSAAVWTDGCVEVLADSGNRRPSTRPRAKE | soluble |
| MRIAVASGKGGTGKTTVAVNLAVFNHIDLFDLDVEEPNDRIFIKGEAEEWPAYRKVPEVRENCNACGVCKDVCQYSAIYVIDKAYPLPELCHSCGACIYLCPEKAMEEVDYQTGKIVRVKSDITLTYGEMRIGEASAVFLIKQVKELMGKNAIIDSPPGASCPMVESVSDADYVILVAEPTPFGLHDLKIAAEVVSDLGLKFGVVVNKHGLPFDGIERYCKEGGVEILGKIPFSKEIAEKYSRGELLHDMKDFFVQLYEGIALEHHHHHH | soluble |
| MSVDPACPQSLPCFEASDCKESSPMPVICGPEENYPSLQMSSAEMPHTETVSPLPSSMDLLIQDSPDSSTSPKGKQPTSAENSVAKKEDKVPVKKQKTRTVFSSTQLCVLNDRFQRQKYLSLQQMQELSNILNLSYKQVKTWFQNQRMKSKRWQKNNWPKNSNGVTQKASAPTYPSLYSSYHQGCLVNPTGNLPMWSNQTWNNSTWSNQTQNIQSWSNHSWNTQTWCTQSWNNQAWNSPFYNCGEESLQSCMHFQPNSPASDLEAALEAAGEGLNVIQQTTRYFSTPQTMDLFLNYSMNMQPEDV | soluble |
| MPTPRRSGRVIVYTGDGKGKTTAALGLALRAVGRGMNVAVLQFLKSPERTYGEQLALERLGVDVRQLGAGFTWTKTPDIHREALKRAWAVAKEYVYSGRYDMIVLDELNNVLAIDRFPVEDIVSVSEVLELIRTRPPSLHLVITGRAARPELMAAADIVTEMKLIKHDYEQGRTAMKGIEF | soluble |
